Residue numbers refer to the chain shown, from its start. Names and notes keep the numbering of the source.
B1: BT061 variant LC master HC Y105W (antibody, V domains shown)
VH: EEQLVESGGGLVKPGGSLRLSCAASGFSFSDCRMYWLRQAPGKGLEWIGVISVKSENYGANYAESVRGRFTISRDDSKNTVYLQMNSLKTEDTAVYYCSASYYRWDVGAWFAYWGQGTLVTVSS
VL: DIVMTQSPDSLAVSLGERATINCRASKSVSTSGYSYIYWYQQKPGQPPKLLIYLASILESGVPDRFSGSGSGTDFTLTISSLQAEDVAVYYCQHSRELPWTFGQGTKVEIKR
notes: also called knockout mutant
B2: BT61 Lot 52690 (antibody, human IgG1, kappa, V domains shown)
VH: B1 VH with W105Y
VL: B1 VL
B3: LC G33A HC R33K (antibody, V domains shown)
VH: B1 VH with R33K, W105Y
VL: B1 VL with G33A
B4: HC master LC L98I (antibody, V domains shown)
VH: B1 VH with W105Y
VL: B1 VL with L98I
B5: LC A55G HC R33K (antibody, V domains shown)
VH: B1 VH with R33K, W105Y
VL: B1 VL with A55G
B6: LC master HC master (antibody, human IgG1, kappa, V domains shown)
VH: B1 VH with W105Y
VL: B1 VL
B7: LC master HC R33K (antibody, V domains shown)
VH: B1 VH with R33K, W105Y
VL: B1 VL
B8: LC master HC R33K-A63G (antibody, V domains shown)
VH: B1 VH with R33K, A63G, W105Y
VL: B1 VL
B9: LC master HC Y105W (antibody, V domains shown)
VH: B1 VH
VL: B1 VL
B10: LC L98I HC R33K (antibody, V domains shown)
VH: B1 VH with R33K, W105Y
VL: B1 VL with L98I
B11: LC master HC A63G (antibody, V domains shown)
VH: B1 VH with A63G, W105Y
VL: B1 VL
B12: LC master HC S101T (antibody, V domains shown)
VH: B1 VH with S101T, W105Y
VL: B1 VL

target: T1, Human CD4 on CD4+CD25+ regulatory T cells (human, UniProt P01730 26-458); experiment: in vitro assay with CD4+CD25+ regulatory T cells (allogeneic mixed lymphocyte reaction); no separate binding assay described
T1 construct: CD4 on Tregs or T cells of healthy human donors
Description: CD4+ CD25+ regulatory T cells were freshly isolated from a first donor (donor A). PBMCs were obtained from EDTA-blood by density gradient centrifugation. […] Tregs were pre-incubated with or without plate-bound antibody for 2 days. The number and phenotype of Tregs was determined by six colour flow cytometry as previously described (Haas et al., 2007). Pre-incubated Tregs were transferred to responder T cells (second donor B) in the presence of T-cell depleted and irradiated PBMCs (first donor A). After stimulation, [³H] thymidine was added and proliferation of responder T cells was measured after five days.

Row | Binder | binding result
1 | B1 | no binding

target: Human CD4 on CD4+CD25+ regulatory T cells of healthy donors (human, UniProt P01730 26-458); experiment: cell-based or functional assay

Row | Binder | % Inh1 [%] | % Inh2 [%] | % Inh3 [%] | Avg. % inhibition [%]
2 | B2 | 26.7 | 24.1 | 27.8 | 26.2
3 | B3 | 6.5 | 7.9 | 9 | 7.8
4 | B4 | 12.2 | 8.4 | 18.2 | 12.9
5 | B5 | 12.1 | 6.4 | 19.3 | 12.6
6 | B6 | – | 25.4 | 25.9 | 26.3
7 | B7 | 19.8 | 18.8 | 15 | 17.9
8 | B8 | 15.7 | 21.5 | 21.9 | 19.7
9 | B9 | 5.3 | 2 | 7 | 4.8
10 | B10 | 9.2 | 24.3 | 24.6 | 19.4
11 | B11 | 33.1 | 25.5 | 19.5 | 26
12 | B12 | 3.1 | -3.6 | 0 | -0.2

From patent US20130004513A1 (published 2013)
